According to patent publication US20050175608A1 (Kyowa Kirin, published 2005):

Molecular target: T1, BSA-compound 1 (conjugate of the human FGF-8 partial peptide compound 1 with bovine serum albumin) (human, not fully specified; C-terminal cysteine conjugated to BSA through SMCC)
T1 construct: Coated on ELISA plates; the BSA carrier is not written as a chain
T1 peptide: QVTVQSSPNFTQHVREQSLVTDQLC
Experiment: ELISA, plate coated with BSA-compound 1; positive control
Description: The above-prepared BSA-compound 1 solution was dispensed at a 96-well ELISA plate (manufactured by Greiner) at a concentration of from 0.5 to 1.0 μg/mL in an amount of 50 μL/well, and allowed to stand overnight at 4° C. for adsorption. After washing with PBS, 1% BSA-containing PBS (hereinafter referred to as BSA-PBS) was added in an amount of 100 μL/well and reacted at room temperature for 1 hour to block a remaining active group. After washing each well with 0.05% Tween-containing PBS (hereinafter referred to as Tween-PBS), the culture supernatant or the purified antibody of the tranformants was added in an amount of 50 μL/well, and the reaction was conducted at room temperature for 1 hour. After the reaction, each well was washed with Tween-PBS, a peroxidase-labeled goat anti-human IgG (H & L) antibody solution (manufactured by American Qualex) diluted 3,000 to 6,000 times with BSA-PBS was added as a second antibody solution in an amount of 50 μL/well. The reaction was performed at room temperature for 1 hour. […] Then, absorbance was measured at 415 nm.

B1: anti-FGF-8 neutralizing chimeric antibody KM3334 (antibody, V domains shown)
VH: QVQLQQSGAEVARPGASVKLSCKASGYTFTDYYLNWVKQRSGQGLEWIGEIDPGSDSIYYNENLEGRATLTADKSSSTAYMQLNSLTSEDSAVYFCARYGYSRYDVRFVYWGQGTLVTVST
VL: DVLMTQTPLSLPVSLGDQASISCRSSQSLVHSNGRTYLEWYLQKPGQSPKVLIYKVSNRISGVPDRFSGSGSGTDFTLKISRVEAEDLGVYFCFQGSHVPYTFGGGTKLEIK
notes: expressed in YB2/0 cells; also called human chimeric antibody KM3334
binding result: binds
